± gives the standard deviation of the averaged measurements.
System: ATP
Experiment: switch fluorescence ratio, 500 uM ATP over buffer (Cy3 cluster intensity, sum of 5 cycles each) (fold (ratio)); higher = stronger signal-on switching upon ATP binding; sequences stand for … in TCGTCGGCAGCGTCAGATGTGTATAAGAGACAGTTTTTTTTTTTTTTTTTTTTTTTTT…TC
Conditions: aptamer strand: ATP DNA aptamer (quencher-CACCTGGGGGAGTATTGCGGAGGAAGG + anchor), 100 nM annealed; ATP concentration: 500 uM
In short: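 Imaging in selection buffer was followed by imaging after 15 min with 500 uM ATP at 22 °C, for Cy3-labelled switching-strand clusters annealed to 100 nM quencher-labelled ATP aptamer on a modified Illumina MiSeq flow-cell. Five of these buffer/ATP cycles ran, separated by NaOH stripping and re-annealing. The fluorescence ratio per cluster is summed target-cycle over summed buffer-cycle Cy3 intensity, averaged per switch-domain sequence; clusters outside 100-1000 RFU were removed.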
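Further: ATP exposure 15 min at 22 °C before imaging.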

ATTAAAGTGC
switch fluorescence ratio: 0.999 ± 0.027

GGGAGTGGGC
switch fluorescence ratio: 0.87939 ± 0.00069

AGGACGAGCA
switch fluorescence ratio: 1.12 ± 0.015

GCTGGGTATT
switch fluorescence ratio: 0.9435 ± 0.0054

TTGCGGGCAG
switch fluorescence ratio: 1.04 ± 0.032

TTAGTGGACT
switch fluorescence ratio: 1.02 ± 0.016

CAGGTTTTGG
switch fluorescence ratio: 0.964 ± 0.034

GTTTTGGGAT
switch fluorescence ratio: 1.02 ± 0.031

CGTGGGTAGA
switch fluorescence ratio: 1.06 ± 0.09

GTTGTAGAGT
switch fluorescence ratio: 1.03 ± 0.032

CGGAGATACG
switch fluorescence ratio: 1.02 ± 0.029

TCTTTAAGGT
switch fluorescence ratio: 1.04 ± 0.023

TTGAAAAAAT
switch fluorescence ratio: 1.06 ± 0.13

ATGATGTTGA
switch fluorescence ratio: 1 ± 0.04

TGTGTGAATG
switch fluorescence ratio: 1.03 ± 0.037

CGGAACGAGA
switch fluorescence ratio: 0.983 ± 0.025

ATTGGGGCTT
switch fluorescence ratio: 1.01 ± 0.018

CGGGCGAATT
switch fluorescence ratio: 0.982 ± 0.014

CCTTAATCTT
switch fluorescence ratio: 0.987 ± 0.026

GTCGCGGGGT
switch fluorescence ratio: 1.027 ± 0.0036

AAAGTGCTAT
switch fluorescence ratio: 1.02 ± 0.048

GGGGCAGGGT
switch fluorescence ratio: 1.03 ± 0.064

CTGGCTGGTG
switch fluorescence ratio: 1.1 ± 0.026

CTGTTCTAGT
switch fluorescence ratio: 0.963 ± 0.045

TTGGGGCTTT
switch fluorescence ratio: 1.02 ± 0.056

GTTGTGGGGG
switch fluorescence ratio: 1.01 ± 0.049

GAAGTTTTTG
switch fluorescence ratio: 0.993 ± 0.017

TGGATGATAT
switch fluorescence ratio: 0.9913 ± 0.008

AGGCGATGCG
switch fluorescence ratio: 0.994 ± 0.097

TTGAATGCCA
switch fluorescence ratio: 0.99 ± 0.028

AACGCTGGGT
switch fluorescence ratio: 1.0379 ± 0.00084

AGGGTATTTA
switch fluorescence ratio: 1.007 ± 0.01

CGCTGCTCGC
switch fluorescence ratio: 1.3253 ± 0.00064

AACGCCAGGC
switch fluorescence ratio: 1.01 ± 0.028

TCTTGAGCTT
switch fluorescence ratio: 1.04 ± 0.03

GCCGGATTGC
switch fluorescence ratio: 1.07 ± 0.033

CTGATTATGT
switch fluorescence ratio: 1.02 ± 0.015

AGGATCATGT
switch fluorescence ratio: 0.966 ± 0.042

AGTGGTATAG
switch fluorescence ratio: 1.01 ± 0.034

TTTGCTAGAT
switch fluorescence ratio: 1.047 ± 0.0097

GGATGGTTGC
switch fluorescence ratio: 1.03 ± 0.021

AGTAGGGGCC
switch fluorescence ratio: 1.012 ± 0.0083

TGGGGGCAAA
switch fluorescence ratio: 0.987 ± 0.03

TTAAGGTTGC
switch fluorescence ratio: 0.989 ± 0.019

TAGCGGGTCA
switch fluorescence ratio: 0.966 ± 0.012

TACGTGGTTG
switch fluorescence ratio: 0.99 ± 0.014

CAAGGAAGAT
switch fluorescence ratio: 1.02 ± 0.014

TTGGGGACGA
switch fluorescence ratio: 0.997 ± 0.032

CAAGGTACGA
switch fluorescence ratio: 1.02 ± 0.043

TCCAATTGCG
switch fluorescence ratio: 0.953 ± 0.021

TGAAAAGTTG
switch fluorescence ratio: 0.987 ± 0.1

TTGTTGTTGG
switch fluorescence ratio: 1.01 ± 0.032

TCAGGGTGTG
switch fluorescence ratio: 1.019 ± 0.0067

CCTGTAGTCT
switch fluorescence ratio: 1.04 ± 0.039

TTTGTAGGCA
switch fluorescence ratio: 0.989 ± 0.011

CGTAGTACGC
switch fluorescence ratio: 1.12 ± 0.04

TTTTAACAGG
switch fluorescence ratio: 1.02 ± 0.08

CAGAAAGATA
switch fluorescence ratio: 0.997 ± 0.018

GCTTTGTACG
switch fluorescence ratio: 1.042 ± 0.0014

CGAGACGTAT
switch fluorescence ratio: 1.09 ± 0.042

GGTCATGTTT
switch fluorescence ratio: 0.993 ± 0.043

TTTTAGGCCG
switch fluorescence ratio: 1.03 ± 0.042

GGGGGGCCAG
switch fluorescence ratio: 1.01 ± 0.04

GGTGCATATT
switch fluorescence ratio: 1.06 ± 0.081

GACAAATGTG
switch fluorescence ratio: 0.99815 ± 0.00093

GCGCTATATG
switch fluorescence ratio: 1.16 ± 0.049

TTTCCTTGAA
switch fluorescence ratio: 0.974 ± 0.017

TGGGTCCATA
switch fluorescence ratio: 0.95611 ± 0.00081

ATTGCATTAA
switch fluorescence ratio: 0.985 ± 0.033

TGGGGAATTC
switch fluorescence ratio: 1.53 ± 0.86

GAAGAGCGGG
switch fluorescence ratio: 0.978 ± 0.016

TTTGGTCGTG
switch fluorescence ratio: 1.042 ± 0.0036

TAAAAAAAGG
switch fluorescence ratio: 1.05 ± 0.067

ATGGGGGGTA
switch fluorescence ratio: 0.986 ± 0.044

GCTGGTATTG
switch fluorescence ratio: 1 ± 0.031

ATTTGTTGCT
switch fluorescence ratio: 0.981 ± 0.025

TCGGGAGTGG
switch fluorescence ratio: 0.9905 ± 0.0016

AAAATAATCT
switch fluorescence ratio: 0.9793 ± 0.004

TCTTATTGGG
switch fluorescence ratio: 0.995 ± 0.042

GAGAATGAGG
switch fluorescence ratio: 0.962 ± 0.0093

AGAATGTCGA
switch fluorescence ratio: 0.968 ± 0.068

AAGCCCGGGA
switch fluorescence ratio: 1.45 ± 0.67

TTATTTTCAG
switch fluorescence ratio: 0.996 ± 0.053

AAAAACCTCG
switch fluorescence ratio: 1.05 ± 0.013

CAAGAAAGTT
switch fluorescence ratio: 0.964 ± 0.034

TGGTTTACCA
switch fluorescence ratio: 0.9936 ± 0.0041

GGAGGTTGGC
switch fluorescence ratio: 1.02 ± 0.07

CGCCAGCATA
switch fluorescence ratio: 2.82 ± 0.31

CTCACCCGGA
switch fluorescence ratio: 1.18 ± 0.012

GTTTGAGGCT
switch fluorescence ratio: 1 ± 0.046

GTGTTAAGGG
switch fluorescence ratio: 0.979 ± 0.028

GCGGTTAGGC
switch fluorescence ratio: 0.968 ± 0.034

TTTGATGGGG
switch fluorescence ratio: 0.988 ± 0.025

TAGGTAGGGA
switch fluorescence ratio: 0.993 ± 0.018

CCAGGAACTC
switch fluorescence ratio: 1.02 ± 0.025

GGCCAAATCC
switch fluorescence ratio: 1.006 ± 0.0056

TCGTCCGGAG
switch fluorescence ratio: 1.55 ± 0.016

CCCTGTCATC
switch fluorescence ratio: 2.1 ± 1.4

AGTTATATTG
switch fluorescence ratio: 0.997 ± 0.07

TAAAAGTATG
switch fluorescence ratio: 0.969 ± 0.054

— the supplement of paper PMC10126150
